Columns and labels:
[1] = target: the molecule itself; assay: SAXS; batch SAXS at 2.5, 5 and 10 mg/ml; ensemble optimization method (EOM) with pools of dimers, hexamers and dodecamers
[2] = target: the molecule itself; assay: cross-linking; BS3 at protein/cross-linker ratios of 1:10 and 1:60, protein 25-250 uM, read by denaturing SDS-PAGE

B1: Hsp21, the 21-kDa chloroplast-localized small heat-shock protein of Arabidopsis thaliana (natural protein)
chain: not shown
notes: N-terminal peptide printed as 1MQDQR5, IXVXI motif 179IDVQI183, rigid bodies of residues 83-184. numbers count on: the mature protein; Dodecamer of two trimer-of-dimer discs; The deposited model lacks part of the NTR; also called Hsp21 WT; Hsp21WT; source: E. coli ER2566, purified (ammonium sulfate precipitation, SEC); copies: 12
- stoichiometry N [1]: 6
- stoichiometry N [2]: 12
